Experimental findings from patent US11224662B2, “Methods and therapeutics comprising ligand-targeted ELPs” (priority 2012, dated 2022) are described below.

Data set [1] can be described thus: Temperature-dependent optical density (turbidity) of ELP fusion peptides. It is filed as physicochemical. Conditions: for phase transition behaviour in optical density over temperature gradient: monoblock knob-ELPs, single increase in optical density; for Critical aggregation temperature: optical density at 350 nm by UV-Vis spectrophotometer. Here is the method:
(§1) To explore the temperature-dependent phase behavior of the ELPs, optical density and hydrodynamic radius were observed over a range of temperatures. Knob-S96, S48148 and knob-S48148 were diluted to 25 μM in PBS on ice and the absorbance at 350 nm was monitored with a DU800 UV-Vis spectrophotometer (Beckman Coulter, Brea, Calif.) at a temperature gradient of 1° C./minute. […] Then 90 μL sample of was transferred into a 384 well microplate and covered with 20 μL mineral oil. The microplate and mineral oil were pre-chilled at 4° C. at least for 1 hour. The microplate was centrifuged at 4° C. to remove air bubbles from samples before and after addition of mineral oil. Then the sample was measured in a DynaPro plate reader (Wyatt Inc., Santa Barbara, Calif.) at temperature intervals of 1° C. The resulting hydrodynamic radii were collected and analyzed by Dynamics (Wyatt Inc., Santa Barbara, Calif.).

Data set [2] is described as follows: Dynamic light scattering of ELP nanoparticles. It is filed as physicochemical. Conditions: for Hydrodynamic radius (nm) at 37° C.: 25 μM in PBS; for formation of nanoparticles: ELP without knob, S96 and I96 data not shown. Here is the method:
as §1

For data set [3], the system named is transformed mouse hepatocytes. The experiment in a line: Live cell uptake of rhodamine-conjugated ELP/knob-ELP in hepatocytes. Format: cell-based. Conditions: 10 μM rhodamine-labeled, 30 minutes at 37° C., confocal microscopy, LYSOTRACKER green. The protocol: To track cellular uptake, the ELPs S48148 and knob-S48148 were conjugated with a detectable label, NHS-Rhodamine (Thermo Fisher Scientific Inc, Rockford, Ill.) via covalent modification of primary amines at the amino end of the peptide. For S48148, the only available amine is at the amino terminus; however, knob-S48148 has an additional 11 lysine residues that may be sites of modification. The conjugation was performed in 100 mM borate buffer for 2 hours at 4° C., and the conjugated ELP was separated by size exclusion chromatography on a PD10 desalting column (GE Healthcare, Piscataway, N.J.).
To observe uptake into mouse hepatocytes, cells were cultured on 35 mm glass coverslip-bottomed dishes with medium [(DMEM (4.5 g/L) containing 10% fetal bovine serum, g/ml insulin, and 0.02 [μg/ml epidermal growth factor]. Uptake studies were conducted when hepatocytes reached 70% confluence. After washing with warm fresh medium, hepatocytes were cultured in medium containing 10 μM of either S48148 or knob-S48148 conjugated with rhodamine, and 75 nM LYSOTRACKER® green. After 30 minutes incubation at 37° C., the cells were rinsed with warm fresh medium to remove the free knob-ELP/ELP in the medium. Next cells were incubated with 75 nM LYSOTRACKER® green in a 37° C. incubation chamber. […]

B1: knob-(VPGSG)96Y (SEQ ID. NO: 8) (protein)
chain: VPGSGVPGSGVPGSGVPGSGVPGSGVPGSGVPGSGVPGSGVPGSGVPGSGVPGSGVPGSGVPGSGVPGSGVPGSGVPGSGVPGSGVPGSGVPGSGVPGSGVPGSGVPGSGVPGSGVPGSGVPGSGVPGSGVPGSGVPGSGVPGSGVPGSGVPGSGVPGSGVPGSGVPGSGVPGSGVPGSGVPGSGVPGSGVPGSGVPGSGVPGSGVPGSGVPGSGVPGSGVPGSGVPGSGVPGSGVPGSGVPGSGVPGSGVPGSGVPGSGVPGSGVPGSGVPGSGVPGSGVPGSGVPGSGVPGSGVPGSGVPGSGVPGSGVPGSGVPGSGVPGSGVPGSGVPGSGVPGSGVPGSGVPGSGVPGSGVPGSGVPGSGVPGSGVPGSGVPGSGVPGSGVPGSGVPGSGVPGSGVPGSGVPGSGVPGSGVPGSGVPGSGVPGSGVPGSGVPGSGVPGSGVPGSGVPGSGVPGSGVPGSGVPGSGVPGSGVPGSGY
For the molecule B1, the “phase transition behaviour in optical density over temperature gradient” value in data set [1] was “well above physiological conditions”. In data set [1] (25 μM in PBS), this molecule registered a Critical aggregation temperature of 68.2 °C. Further, the “Hydrodynamic radius (nm) at 37° C.” value in data set [2] (dynamic light scattering) came to 5.3 nm.

B2: (VPGSG)96 (SEQ ID. NO: 13) (protein)
chain: VPGSGVPGSGVPGSGVPGSGVPGSGVPGSGVPGSGVPGSGVPGSGVPGSGVPGSGVPGSGVPGSGVPGSGVPGSGVPGSGVPGSGVPGSGVPGSGVPGSGVPGSGVPGSGVPGSGVPGSGVPGSGVPGSGVPGSGVPGSGVPGSGVPGSGVPGSGVPGSGVPGSGVPGSGVPGSGVPGSGVPGSGVPGSGVPGSGVPGSGVPGSGVPGSGVPGSGVPGSGVPGSGVPGSGVPGSGVPGSGVPGSGVPGSGVPGSGVPGSGVPGSGVPGSGVPGSGVPGSGVPGSGVPGSGVPGSGVPGSGVPGSGVPGSGVPGSGVPGSGVPGSGVPGSGVPGSGVPGSGVPGSGVPGSGVPGSGVPGSGVPGSGVPGSGVPGSGVPGSGVPGSGVPGSGVPGSGVPGSGVPGSGVPGSGVPGSGVPGSGVPGSGVPGSGVPGSGVPGSGVPGSGVPGSGVPGSGVPGSGVPGSGVPGSGVPGSGVPGSG
For B2, the formation of nanoparticles result in data set [2] is recorded as “do not form nanoparticles”.

B3: (VPGIG)96 (SEQ ID. NO: 14) (protein)
chain: VPGIGVPGIGVPGIGVPGIGVPGIGVPGIGVPGIGVPGIGVPGIGVPGIGVPGIGVPGIGVPGIGVPGIGVPGIGVPGIGVPGIGVPGIGVPGIGVPGIGVPGIGVPGIGVPGIGVPGIGVPGIGVPGIGVPGIGVPGIGVPGIGVPGIGVPGIGVPGIGVPGIGVPGIGVPGIGVPGIGVPGIGVPGIGVPGIGVPGIGVPGIGVPGIGVPGIGVPGIGVPGIGVPGIGVPGIGVPGIGVPGIGVPGIGVPGIGVPGIGVPGIGVPGIGVPGIGVPGIGVPGIGVPGIGVPGIGVPGIGVPGIGVPGIGVPGIGVPGIGVPGIGVPGIGVPGIGVPGIGVPGIGVPGIGVPGIGVPGIGVPGIGVPGIGVPGIGVPGIGVPGIGVPGIGVPGIGVPGIGVPGIGVPGIGVPGIGVPGIGVPGIGVPGIGVPGIGVPGIGVPGIGVPGIGVPGIGVPGIGVPGIGVPGIGVPGIGVPGIG
Regarding B3, the formation of nanoparticles result in data set [2] is given as “do not form nanoparticles”.

B4: knob-(VPGIG)96Y (SEQ ID. NO: 9) (protein)
chain: VPGIGVPGIGVPGIGVPGIGVPGIGVPGIGVPGIGVPGIGVPGIGVPGIGVPGIGVPGIGVPGIGVPGIGVPGIGVPGIGVPGIGVPGIGVPGIGVPGIGVPGIGVPGIGVPGIGVPGIGVPGIGVPGIGVPGIGVPGIGVPGIGVPGIGVPGIGVPGIGVPGIGVPGIGVPGIGVPGIGVPGIGVPGIGVPGIGVPGIGVPGIGVPGIGVPGIGVPGIGVPGIGVPGIGVPGIGVPGIGVPGIGVPGIGVPGIGVPGIGVPGIGVPGIGVPGIGVPGIGVPGIGVPGIGVPGIGVPGIGVPGIGVPGIGVPGIGVPGIGVPGIGVPGIGVPGIGVPGIGVPGIGVPGIGVPGIGVPGIGVPGIGVPGIGVPGIGVPGIGVPGIGVPGIGVPGIGVPGIGVPGIGVPGIGVPGIGVPGIGVPGIGVPGIGVPGIGVPGIGVPGIGVPGIGVPGIGVPGIGVPGIGVPGIGVPGIGVPGIGY
Turning to B4, the “phase transition behaviour in optical density over temperature gradient” value in data set [1] is on record as “phase-separates near room temperature”.

B5: G(VPGSG)48(VPGIG)48Y (SEQ ID. NO: 10) (protein)
chain: GVPGSGVPGSGVPGSGVPGSGVPGSGVPGSGVPGSGVPGSGVPGSGVPGSGVPGSGVPGSGVPGSGVPGSGVPGSGVPGSGVPGSGVPGSGVPGSGVPGSGVPGSGVPGSGVPGSGVPGSGVPGSGVPGSGVPGSGVPGSGVPGSGVPGSGVPGSGVPGSGVPGSGVPGSGVPGSGVPGSGVPGSGVPGSGVPGSGVPGSGVPGSGVPGSGVPGSGVPGSGVPGSGVPGSGVPGSGVPGSGVPGIGVPGIGVPGIGVPGIGVPGIGVPGIGVPGIGVPGIGVPGIGVPGIGVPGIGVPGIGVPGIGVPGIGVPGIGVPGIGVPGIGVPGIGVPGIGVPGIGVPGIGVPGIGVPGIGVPGIGVPGIGVPGIGVPGIGVPGIGVPGIGVPGIGVPGIGVPGIGVPGIGVPGIGVPGIGVPGIGVPGIGVPGIGVPGIGVPGIGVPGIGVPGIGVPGIGVPGIGVPGIGVPGIGVPGIGVPGIGY
As for B5, in data set [1] (first phase transition, optical density, 25 μM in PBS), the “Transition Temperature T1” value turned out to be 26.5 °C. The same molecule came in with a Critical aggregation temperature in data set [1] (25 μM in PBS) of 26.5 °C. Moreover, in data set [1] (second phase transition, optical density, 25 μM in PBS), the “Transition Temperature T2” value is 75 °C. Also, the “cellular uptake / fluorescence localisation” value in data set [3] is on record as “slightly more intense fluorescence on the cell surface”. Further, in data set [2] (BSA stable from 10 to 37° C., ELPs as unimers below assembly temperature), the “size by dynamic light scattering (BSA; unimers of the ELPs)” value is listed as “around 4 nm”. The formation of nanoparticles result in data set [2] was “form nanoparticles at physiological temperatures”. Also, in data set [2] (dynamic light scattering), the “critical nanoparticle temperature (CNT)” value is 26.5 °C and the “Hydrodynamic radius (nm) at 37° C.” value is 23.7 nm. Also, the “hydrodynamic diameter of nanoparticles” value in data set [2] (dynamic light scattering, self-assembled nanoparticles) is “around 40 nm”.
